What all share (settings): both partners purified
The target in one test is LC3B K30R (human, UniProt Q9GZQ8 1-120, K30R). Description: ITC; peptide at 0.4 mM titrated into 0.020 mM LC3B or GABARAP protein in 26 steps, 25 C, VP-ITC, one-site model; 50 mM Na2HPO4, 100 mM NaCl, pH 7.0. Background: In ITC the heat of successive injections is recorded.
In a further test the target is T1, GABARAP R28K (human, UniProt O95166 1-117, R28K).
T1 construct: GABARAP, human, with R28K; also called GABARAP R28K mutant
The description is as above.

The target in a further test is T2, 6xHis-tagged GABARAP (human, UniProt O95166 1-117).
T2 construct: GABARAP, human; also called HIS6-GABARAP; source: isolated from E. coli
The test is described as follows: peptide or protein array; biotinylated peptides immobilised on streptavidin-coated 96-well plates, 1 uM His6-tagged mATG8 in PBS, 0.1% Tween-20, 1% BSA, 1 h at 8 C, detected with anti-His-HRP and TMB at 450 nm; expressed relative to the WT LIR peptide.

The next test concerns the target LC3B (for ITC and NMR) (human, UniProt Q9GZQ8 1-120). The test is described as follows: ITC; peptide 0.4 mM titrated into 0.020 mM LC3/GABARAP protein in 26 steps, 25°C; 50 mM Na2HPO4, 100 mM NaCl, pH 7.0; one-site model.
In test [1] the target is T3, GABARAP (for ITC and NMR) (human, UniProt O95166 1-117).
T3 construct: GABARAP, human; source: E. coli NEB T7 Express, purified
The test is described as above.

Test [2] deals with T4, GABARAP‐L2 (for ITC and NMR) (human, UniProt P60520 1-117).
T4 construct: GABARAP-L2/GATE-16, human; 15N-labelled for NMR; also called GATE‐16; source: E. coli NEB T7 Express, purified
The test is described as above.

The target of test [3] is T5, GABARAP‐L1 (for ITC and NMR) (human, UniProt Q9H0R8 1-117).
T5 construct: GABARAP-L1, human; 15N-labelled for NMR; source: E. coli NEB T7 Express, purified
The test is described as above.

Another test addresses T6, LC3C (for ITC) (human, UniProt Q9BXW4 1-126).
T6 construct: LC3C, human; source: E. coli NEB T7 Express, purified
Described as above.

For a further test, the target named is T7, LC3A (for ITC and NMR) (human, UniProt Q9H492 1-121).
T7 construct: LC3A, human; 15N-labelled for NMR; also called MAP1LC3A; source: E. coli NEB T7 Express, purified
The description is as above.

For another test, the target named is T8, 6xHis-tagged GABARAP-L1 (human, UniProt Q9H0R8 1-117).
T8 construct: GABARAP-L1, human; also called HIS6-GABARAP-L1; source: isolated from E. coli
Description: peptide or protein array; biotinylated peptides immobilised on streptavidin-coated 96-well plates, 1 uM His6-tagged mATG8 in PBS, 0.1% Tween-20, 1% BSA, 1 h at 8 C, detected with anti-His-HRP and TMB at 450 nm; expressed relative to the WT LIR peptide.

The source of these data is PMC5538626 (EMBO Reports, 2017).

Ends that are not written are not given here.

T5 sequence (Q9H0R8 whole entry): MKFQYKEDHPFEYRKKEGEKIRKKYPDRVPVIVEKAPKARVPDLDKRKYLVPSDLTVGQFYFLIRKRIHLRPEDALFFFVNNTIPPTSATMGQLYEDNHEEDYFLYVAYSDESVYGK
T3 sequence (O95166 whole entry): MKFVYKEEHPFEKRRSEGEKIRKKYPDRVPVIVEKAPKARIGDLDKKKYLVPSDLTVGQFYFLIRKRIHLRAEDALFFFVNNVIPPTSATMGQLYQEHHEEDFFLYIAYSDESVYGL
T6 sequence (Q9BXW4 1-126): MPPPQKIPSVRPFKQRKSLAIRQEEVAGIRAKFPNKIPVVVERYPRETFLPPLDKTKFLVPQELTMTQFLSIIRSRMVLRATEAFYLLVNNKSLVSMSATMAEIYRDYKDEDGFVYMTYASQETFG
T4 sequence (P60520 whole entry): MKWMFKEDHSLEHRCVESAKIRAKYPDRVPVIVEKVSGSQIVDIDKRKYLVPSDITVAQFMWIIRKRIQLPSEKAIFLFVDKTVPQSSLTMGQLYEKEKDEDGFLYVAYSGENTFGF
T1 sequence (O95166 whole entry R28K): as the sequence (O95166 whole entry) above, with R28K counted along it
T8 sequence (Q9H0R8 whole entry, looked up): as the sequence (Q9H0R8 whole entry) above
T2 sequence (O95166 whole entry): as the sequence (O95166 whole entry) above

B1: PLEKHM1-LIR peptide (GAMG-P629QQEDEWVNVQYPD642) (peptide)
peptide: GAMGPQQEDEWVNVQYPD
notes: cloning artefact left after TEV cleavage; PLEKHM1, LIR region, residues 629-642; Used non-labelled in ITC and in the LC3C co-crystal, 15N-labelled in the NMR titrations with non-labelled proteins; The Appendix (D1:p2) calls the ITC peptide 'synthetic', the methods describe the recombinant preparation; also called PLEKHM1-LIR WT; PLEKHM1 629-642; source: E. coli NEB T7, expressed as …
As usually defined, the Kd is the constant that tells how readily two partners part at equilibrium. A word on the stoichiometry N: it is a count of units in the complex or per binding partner. B1: in the test with LC3B K30R, the Ka worked out at 190000 M⁻¹, binding was put at a Kd of 5260 nM and the “stoichiometry N” value was found to be 1.11 ± 0.02. In the test with GABARAP R28K, the Ka is 1.9e+06 M⁻¹, the Kd was 540 nM and the “stoichiometry N” value turned out to be 1.05 ± 0.01.

B2: Biotinylated PLEKHM1-LIR V636I peptide (peptide, UniProt Q9Y4G2 632-640, looked up)
peptide: EDEWINVQY
modifications: also: biotinylated, position not given here
notes: also called V636X with X = I; I in position X1; source: synthetic peptide, bought: JPT, Germany
Turning to B2, in the test with 6xHis-tagged GABARAP, the binding result is reported as “binds”.

B3: PLEKHM1‐LIR peptide (GAMG‐P^629QQEDEWVNVQYPD^642) (peptide)
peptide: GAMGPQQEDEWVNVQYPD
notes: cloning artefact left after TEV cleavage; PLEKHM1 LIR, residues 629-642; 13C,15N- or 15N-labelled for some NMR experiments; also called PLEKHM1‐LIR WT; source: E. coli NEB T7, as Ub63 fusion, TEV-cleaved, purified (Ni-NTA, reverse Ni-NTA, gel filtration)
For the molecule B3, the Ka in the test with LC3B (for ITC and NMR) was found to be 160000 M⁻¹; in [1], 1.8e+06 M⁻¹; in test [2], 1.07e+06 M⁻¹; in test [3] it was 1.3e+06 M⁻¹; with LC3C (for ITC) it was 290000 M⁻¹; with LC3A (for ITC and NMR), 240000 M⁻¹. Further, the Kd with LC3B (for ITC and NMR) came to 6330 nM; in test [1], 550 nM; in test [2], 930 nM; in test [3] it was 770 nM; with LC3C (for ITC), 3450 nM; with LC3A (for ITC and NMR), 4220 nM. For the same molecule, the dH with LC3B (for ITC and NMR) was -5.8 ± 0.2 kcal/mol; in test [1] it was -10.6 ± 0.1 kcal/mol; in test [2] it was -6.1 ± 0.1 kcal/mol; in test [3] it was -7.8 ± 0.1 kcal/mol; with LC3C (for ITC), -8.3 ± 0.2 kcal/mol; in the test with LC3A (for ITC and NMR), -7 ± 0.2 kcal/mol. For the same molecule, the “stoichiometry N” value in the test with LC3B (for ITC and NMR) came to 1.06 ± 0.01; in test [1] it was 1 ± 0.01; in test [2], 1.05 ± 0.01; in test [3] it was 1 ± 0.01; with LC3C (for ITC), 0.99 ± 0.02; with LC3A (for ITC and NMR) it was 0.98 ± 0.02.

B4: Biotinylated PLEKHM1-LIR V636L peptide (peptide)
peptide: EDEWLNVQY
modifications: also: biotinylated, position not given here
notes: also called V636X with X = L; L in position X1; source: synthetic peptide, bought: JPT, Germany
For B4, the binding result with 6xHis-tagged GABARAP-L1 was “binds”.
